This is an account of results in article PMC4933183.

In general, stoichiometry N refers to a count of units in the complex or per binding partner.

For assay [1], the target named is SPAM fragment of DBLMSP2 (3D7) (Plasmodium falciparum (3D7 strain)). Nature of the assay: SEC; size exclusion chromatography of the purified Cd4-tagged proteins; markers thyroglobulin, ferritin, aldolase, conalbumin, carbonic anhydrase.
Assay [2] concerns the target biotinylated human IgM (human). Nature of the assay: SPR; BIAcore T100, 37 °C, HBS-EP; biotinylated human IgM on streptavidin chip (biotinylated human IgG as reference), gel-filtered monomeric DBL domains injected at 20 μl/min for 2 min to equilibrium; 1:1 Langmuir isotherm. For orientation: SPR reads the build-up and loss of mass on a sensor chip optically.
In assay [3] the target is recombinant full-length DBLMSP2 (3D7), monobiotinylated (Plasmodium falciparum (3D7 strain)). Description: SPR; BIAcore T100, 37 °C, HBS-EP; biotinylated full-length DBLMSP or DBLMSP2 on streptavidin chip, purified human IgM injected 30 min at 10 μl/min to equilibrium; equilibrium fit to a simple Langmuir isotherm; values reflect overall binding avidity.
In assay [4] the target is recombinant full-length DBLMSP (3D7), monobiotinylated (Plasmodium falciparum (3D7 strain)). The description is as above.

The substance “SPAM fragment of DBLMSP2 (3D7) (domain or fragment)” came in with a stoichiometry N in assay [1] of over 4.
On to “DBL domain of DBLMSP (3D7) (domain or fragment)”, for which the Kd in assay [2] is 0.06 µM.
Turning to human IgM (natural protein), the values for the Kd in assay [3] and in assay [4] were 0.0011 µM and 0.0003 µM, respectively.
With “DBL domain of DBLMSP2 (3D7) (domain or fragment)”, the Kd in assay [2] was found to be 0.6 µM.
